Test results as given in patent publication US20180118814A1.

Experiments:
[1] = molecular target: HBsAg-L antigen (Beacle, BCL-AG-001) (hepatitis B virus); test: ELISA, plate coated with 1 µg/mL HBsAg-L, anti-human kappa-HRP detection, cell culture supernatant
[2] = molecular target: HBsAg-L antigen (Beacle, BCL-AG-001) (hepatitis B virus); test: ELISA, plate coated with 1 µg/mL HBsAg-L, anti-human kappa-HRP detection, purified protein

B1: HBV24G (antibody, human IgG1, kappa, V domains shown)
VH: QVQLVQSGAEVKAPGASVKVSCKASGYTFTSAWMNWVRQAPGQGLEWMGRIYPSGGSTSYAQKFQGRVTMTADKSTSTVYMELSSLRSEDTAVYYCAREYRVARWGQGTLVTVSS
VL: DIVMTQTPLSLSVTPGQPASISCKSSQSLLYSNGKTYLNWLLQKPGQPPQRLIYLVSNRDSGVPDRFSGSGSGTDFTLKISRVEAEDVGVYYCVQGTHFPQTFGGGTKVEIKR
B1 gave an EC50 [1] of 57 pM and an EC50 [2] of 61 pM.
